Results from patent publication US20030060605A1 (LA JOLLA INSTITUTE FOR ALLERGY AND IMMUNOLOGY, published 2003).

Columns and labels:
[1] = molecular target: HVEM:Fc fusion protein (extracellular region of HVEM, 1 to K184, fused to the Fc of human IgG1) (human) (UniProt Q92956); assay: SPR (BIAcore 1000), receptor:Fc amine-coupled to CM5, LIGHT mutant as analyte
[2] = molecular target: LTβR on the surface of human cells (HT29, NHDF) (human) (UniProt P36941); assay: cell-based or functional assay
[3] = molecular target: HVEM:Fc fusion protein (extracellular region of HVEM, 1 to K184, fused to the Fc of human IgG1) (human) (UniProt Q92956); assay: SPR (BIAcore 1000)
[4] = molecular target: HVEM:Fc fusion protein (extracellular region of HVEM, 1 to K184, fused to the Fc of human IgG1) (human) (UniProt Q92956); assay: ELISA, receptor:Fc coated as capture (150 ng/well), FLAG-tagged ligand, M2 anti-FLAG and goat anti-mouse HRP, OD 415 [panel human HVEM:Fc]
human LTβR:Fc (human) [5] = molecular target: human LTβR:Fc (human) (UniProt P36941); assay: SPR (BIAcore 1000), receptor:Fc amine-coupled to CM5, LIGHT mutant as analyte
[6] = molecular target: mouse HVEM:Fc (extracellular region of mouse HVEM, Met1 to Ser205, fused to the Fc of human IgG1) (mouse; human) (UniProt Q80WM9); assay: ELISA, receptor:Fc coated as capture (150 ng/well), FLAG-tagged ligand, M2 anti-FLAG and goat anti-mouse HRP, OD 415 [panel mouse HVEM:Fc]
human LTβR:Fc (human) [7] = molecular target: human LTβR:Fc (human) (UniProt P36941); assay: SPR (BIAcore 1000), receptor:Fc amine-coupled to CM5, LIGHT as analyte 100-500 nM
[8] = molecular target: HVEM:Fc fusion protein (extracellular region of HVEM, 1 to K184, fused to the Fc of human IgG1) (human) (UniProt Q92956); assay: as above
human LTβR:Fc (human) [9] = molecular target: human LTβR:Fc (human) (UniProt P36941); assay: ELISA, receptor:Fc coated as capture (150 ng/well), FLAG-tagged ligand, M2 anti-FLAG and goat anti-mouse HRP, OD 415 [panel Human LTβR:Fc]
[10] = molecular target: mouse LTβR:Fc (residues 1 to Met221 of the extracellular domain of mouse LTβR) (mouse) (UniProt P50284); assay: ELISA, receptor:Fc as capture, M2 anti-FLAG detection
[11] = molecular target: mouse HVEM:Fc (extracellular region of mouse HVEM, Met1 to Ser205, fused to the Fc of human IgG1) (mouse; human) (UniProt Q80WM9); assay: as above
[12] = molecular target: p30 (LIGHT), the 30 kDa cell surface HVEM ligand of activated II-23.D7 T hybridoma cells and human T cells (human) (UniProt O43557); assay: competition flow cytometry: II-23.D7 cells activated with PMA and ionomycin, pre-incubated with the Fc protein, then HVEM:Fc-rabbit 2 µg/ml, goat anti-rabbit IgG-PE; competitor displaced: HVEM:rbFc [lower graph]
[13] = molecular target: LTβR on the surface of human cells (HT29, NHDF) (human, UniProt P36941 31-435); assay: cell-based or functional assay
[14] = molecular target: T1, HVEM:Fc fusion protein (extracellular region of HVEM, 1 to K184, fused to the Fc of human IgG1) (human, UniProt Q92956 39-184); assay: competition flow cytometry: HVEM:Fc pre-incubated with the ligand, then added to II-23.D7 cells activated with PMA and ionomycin (p30 on the cells), anti-huIgG-PE [lower graph]
T1 construct: range 1-184; Made in the baculovirus vector pVL1392; Residues 1-184 include the signal peptide; also called huHVEM:Fc; hu HVEM:Fc; not shown: Fc of human IgG1
T1 sequence (looked up): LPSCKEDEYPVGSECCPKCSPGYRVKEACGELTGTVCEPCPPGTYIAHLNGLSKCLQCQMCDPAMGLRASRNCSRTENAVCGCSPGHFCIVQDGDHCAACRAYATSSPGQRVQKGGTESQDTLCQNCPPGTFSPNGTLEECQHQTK

[15] = molecular target: T1, HVEM:Fc fusion protein (extracellular …); assay: competition flow cytometry: HVEM:Fc pre-incubated with the ligand 30 min at 4 C, then added to II-23.D7 cells activated with PMA and ionomycin (p30 on the cells), anti-huIgG-PE [lower graph]
[16] = molecular target: T1, HVEM:Fc fusion protein (extracellular …); assay: competition flow cytometry: HVEM:Fc 2 µg/ml pre-incubated with the gD-1 protein 30 min at 4 C, then added to II-23.D7 cells activated with PMA and ionomycin (p30 on the cells) [lower graph]
[17] = molecular target: T2, p30 (LIGHT), the 30 kDa cell surface HVEM ligand of activated II-23.D7 T hybridoma cells and human T cells (human, UniProt O43557 1-240); assay: competition flow cytometry: II-23.D7 cells activated with PMA and ionomycin, pre-incubated with the Fc protein, then HVEM:Fc-rabbit 2 µg/ml, goat anti-rabbit IgG-PE [lower graph]
T2 construct: whole, on cells; On the cell surface in flow cytometry; in NP40 detergent extracts in the precipitations
T2 sequence (O43557 whole entry): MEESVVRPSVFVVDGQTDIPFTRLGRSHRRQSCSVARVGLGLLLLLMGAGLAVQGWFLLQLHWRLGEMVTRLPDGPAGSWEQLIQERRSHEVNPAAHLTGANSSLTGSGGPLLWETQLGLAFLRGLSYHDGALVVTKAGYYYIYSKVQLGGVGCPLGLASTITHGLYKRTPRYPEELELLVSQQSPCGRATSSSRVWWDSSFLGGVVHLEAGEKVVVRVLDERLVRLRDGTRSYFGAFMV

Chain of mouse LTβR:Fc (residues 1 to Met221 of the extracellular domain of mouse LTβR) (mouse) (P50284 31-221): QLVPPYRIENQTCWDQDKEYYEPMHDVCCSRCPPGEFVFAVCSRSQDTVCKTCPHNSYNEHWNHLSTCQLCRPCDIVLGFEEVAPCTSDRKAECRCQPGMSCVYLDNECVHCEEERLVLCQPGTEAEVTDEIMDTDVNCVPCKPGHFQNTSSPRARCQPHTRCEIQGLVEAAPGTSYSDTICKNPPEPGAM
Chain of p30 (LIGHT), the 30 kDa cell surface HVEM ligand of activated II-23.D7 T hybridoma cells and human T cells (human) (O43557 whole entry): as the sequence (O43557 whole entry) above

Molecule: LIGHTt66-FLAG mutant G119E (ligand)
- Kd [1]: 114 nM
- koff [1]: 0.002 s⁻¹
- kon [1]: 18000 M⁻¹ s⁻¹
- up-regulation of ICAM expression by NHDF cells (fold induction, flow cytometry) [2]: < 1.5 fold
- fold lower affinity than LIGHT t66 [3]: 30 fold

Molecule: LIGHTt66-FLAG mutant L120Q (ligand)
- 50% cell death of HT29 cells (MTT, 72 h, with IFNγ) [2]: 10 µM
- EC50 (read off the curve) [4]: 0.08 nM

Molecule: LIGHTt66-FLAG mutant Q117T (ligand)
- Kd (human LTβR:Fc (human) [5]): 1.5 nM
- koff (human LTβR:Fc (human) [5]): 4.5e-05 s⁻¹
- Kd [1]: 0.3 nM
- kon [1]: 20000 M⁻¹ s⁻¹
- 50% cell death of HT29 cells (MTT, 72 h, with IFNγ) [2]: 10 µM
- EC50 (read off the curve) [6]: 0.9 nM

Molecule: LIGHTt66-FLAG mutant Y173F (ligand)
- Kd (human LTβR:Fc (human) [5]): 31 nM
- koff (human LTβR:Fc (human) [5]): 0.0011 s⁻¹
- kon (human LTβR:Fc (human) [5]): 37000 M⁻¹ s⁻¹
- Kd [1]: 173 nM
- koff [1]: 0.0033 s⁻¹
- kon [1]: 19000 M⁻¹ s⁻¹
- 50% cell death of HT29 cells (MTT, 72 h, with IFNγ) [2]: 0.001 µM
- up-regulation of ICAM expression by NHDF cells (fold induction, flow cytometry) [2]: 2.5 fold
- Kd [3]: 180 nM
- fold lower affinity than LIGHT t66 [3]: > 40 fold

Molecule: LIGHTt66-FLAG, recombinant soluble homotrimeric LIGHT lacking the N-terminal 66 amino acids (ligand)
- IC50 for inhibition of pp28 expression (HCMV infected NHDF, western blot) [2]: 0.4 nM
- concentration that completely inhibits the cytopathic effect of HCMV [2]: 100 pM
- dose for 50% cytotoxicity to HT29 cells (MTT, with IFNγ) [2]: 10 to 100 pM
- up-regulation of ICAM expression by NHDF cells (fold induction, flow cytometry) [2]: 4 fold
- Kd (human LTβR:Fc (human) [7]): 4.5 nM
- koff (human LTβR:Fc (human) [7]): 0.00012 s⁻¹
- kon (human LTβR:Fc (human) [7]): 27000 M⁻¹ s⁻¹
- Kd [8]: 3.9 nM
- koff [8]: 4.8e-05 s⁻¹
- kon [8]: 12000 M⁻¹ s⁻¹
- EC50 (read off the curve) (human LTβR:Fc (human) [9]): 0.3 nM
- fold lower affinity (against the human receptors) [10]: 10 fold
- fold lower affinity (against the human receptors) [11]: 10 fold

Molecule: LTβR:Fc (as printed in Examples 1 to 4; human or mouse not said) (Fc fusion)
- IC50 (read off the curve) [12]: 10 µg/mL

B1: recombinant soluble LTα1β2 (ligand)
chain 1: LPGVGLTPSAAQTARQHPKMHLAHSTLKPAAHLIGDPSKQNSLLWRANTDRAFLQDGFSLSNNSLLVPTSGIYFVYSQVVFSGKAYSPKATSSPLYLAHEVQLFSSQYPFHVPLLSSQKMVYPGLQEPWLHSMYHGAAFQLTQGDQLSTHTDGIPHLVLSPSTVFFGAFAL
chain 2: QDQGGLVTETADPGAQAQQGLGFQKLPEEEPETDLSPGLPAAHLIGAPLKGQGLGWETTKEQAFLTSGTQFSDAEGLALPQDGLYYLYCLVGYRGRAPPGGGDPQGRSVTLRSSLYRAGGAYGPGTPELLLEGAETVTPVLDPARRQGYGPLWYTSVGFGGLVQLRRGERVYVNISHPDMVDFARGKTFFGAVMVG
- IC50 for inhibition of pp28 expression (HCMV infected NHDF, western blot) [13]: 1 nM

B2: LTα homotrimer (ligand, UniProt P01374 35-205, looked up)
chain: LPGVGLTPSAAQTARQHPKMHLAHSTLKPAAHLIGDPSKQNSLLWRANTDRAFLQDGFSLSNNSLLVPTSGIYFVYSQVVFSGKAYSPKATSSPLYLAHEVQLFSSQYPFHVPLLSSQKMVYPGLQEPWLHSMYHGAAFQLTQGDQLSTHTDGIPHLVLSPSTVFFGAFAL
notes: One entry for the recombinant protein and for the native LTα (23-25 kDa, and the 23 kDa precursor) of the human II-23.D7 cells; also called recombinant LTα; secreted LTα
- IC50 (read off the curve) [14]: ~50 nM
- IC50 (read off the curve) [15]: ~30 nM

B3: soluble HSV gD-1 (glycoprotein D of HSV-1) (ligand)
chain: KYALVDASLKMADPNRFRGKDLPVLDQLTDPPGVRRVYHIQAGLPDPFQPPSLPITVYYAVLERACRSVLLNAPSEAPQIVRGASEDVRKQPYNLTIAWFRMGGNCAIPITVMEYTECSYNKSLGACPIRTQPRWNYYDSFSAVSEDNLGFLMHAPAFETAGTYLRLVKINDWTEITQFILEHRAKGSCKYALPLRIPPSACLSPQAYQQGVTVDSIGMLPRFIPENQRTVAVYSLKIAGWHGPKAPYTSTLLPPELSETPNATQPELAPEDPEDSALLEDPVGTVAPQIPPNWHIPSIQDAATPY
- IC50 (read off the curve) [16]: ~20 µg/mL

B4: gD-1 (Δ290-299t), mutant of soluble HSV gD-1 (ligand)
chain: KYALVDASLKMADPNRFRGKDLPVLDQLTDPPGVRRVYHIQAGLPDPFQPPSLPITVYYAVLERACRSVLLNAPSEAPQIVRGASEDVRKQPYNLTIAWFRMGGNCAIPITVMEYTECSYNKSLGACPIRTQPRWNYYDSFSAVSEDNLGFLMHAPAFETAGTYLRLVKINDWTEITQFILEHRAKGSCKYALPLRIPPSACLSPQAYQQGVTVDSIGMLPRFIPENQRTVAVYSLKIAGWHGPKAPYTSTLLPPELSETPNATQPELAPEDPEDSALLEDPVGTVAPQQDAATPY
- IC50 (read off the curve) [16]: ~6 µg/mL

B5: Fas:Fc (Fc fusion, UniProt P25445 26-173, looked up)
chain: QVTDINSKGLELRKTVTTVETQNLEGLHHDGQFCHKPCPPGERKARDCTVNGDEPDCVPCQEGKEYTDKAHFSSKCRRCRLCDEGHGLEVEINCTRTQNTKCRCKPNFFCNSTVCEHCDPCTKCEHGIIKECTLTSNTKCKEEGSRSN
notes: not shown: Fc region of human IgG1
- binding result [17]: no binding
